Reference: publication PMC3965382

Target: T1, purified Gαs, P63092
T1 chain: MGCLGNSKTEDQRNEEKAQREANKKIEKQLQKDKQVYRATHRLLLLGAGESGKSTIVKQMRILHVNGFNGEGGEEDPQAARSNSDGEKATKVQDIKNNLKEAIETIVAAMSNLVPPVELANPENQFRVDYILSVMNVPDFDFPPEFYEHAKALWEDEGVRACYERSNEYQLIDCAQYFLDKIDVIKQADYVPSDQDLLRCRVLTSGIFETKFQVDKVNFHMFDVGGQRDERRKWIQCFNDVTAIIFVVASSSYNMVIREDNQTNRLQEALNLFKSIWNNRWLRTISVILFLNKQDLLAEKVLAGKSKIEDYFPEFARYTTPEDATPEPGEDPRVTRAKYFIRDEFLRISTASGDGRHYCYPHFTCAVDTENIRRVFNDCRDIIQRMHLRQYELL
Assay: SPR
Conditions: chain shown with the change, read off a plot

B1: wild-type coronin 1, HA-tagged, O89053 K20A; R69A; K355A; E102A (protein)
chain: MSRQVVRSSKFRHVFGQPAAADQCYEDVRVSQTTWDSGFCAVNPKFMALICEASGGGAFLVLPLGKTGAVDKNVPLVCGHTAPVLDIAWCPHNDNVIASGSADCTVMVWEIPDGGLVLPLREPVITLEGHTKRVGIVAWHPTAQNVLLSAGCDNVILVWDVGTGAAVLTLGPDVHPDTIYSVDWSRDGALICTSCRDKRVRVIEPRKGTVVAEKDRPHEGTRPVHAVFVSEGKILTTGFSRMSERQVALWDTKHLEEPLSLQELDTSSGVLLPFFDPDTNIVYLCGKGDSSIRYFEITSEAPFLHYLSMFSSKESQRGMGYMPKRGLEVNKCEIARFYKLHERKCEPIAMTVPRASDLFQEDLYPPTAGPDPALTAEEWLGGRDAGPLLISLKDGYVPPKSRELRVNRGLDSARRRATPEPSGTPSSDTVSRLEEDVRNLNAIVQKLQERLDRLEETVQAK
response (500 nM coronin 1 injected over immobilized Gαs, parent: est. 120): 25 RU
response (1000 nM coronin 1 injected over immobilized Gαs, parent: est. 400): 76 RU
